In PMC10814857, “Functional Classification and Interaction Selectivity Landscape of the Human SH3 Domain Superfamily” (Cells, 2024):
Values belong to the binder of their own block, whether it stands above or below them.

Assays:
[1] = target: SOS1 P7 (Homo sapiens), Q07889; experiment: fluorescence polarization
[2] = target: P7, fluorescein-labelled proline-rich peptide from the SOS1 proline-rich domain (human); experiment: fluorescence polarisation; 0.2 µM fluorescein-labelled peptide, SH3 domain titrated 0 to 200 µM; 30 mM Tris/HCl pH 7.5, 5 mM MgCl2, 3 mM DTT, 25 °C; quadratic ligand binding equation

- Kd [1]: < 500 nM
B1: ARHGAP12 SH3, Q8IWW6 (protein)
chain: KIIPGQVYIEVEYDYEYEAKDRKIVIKQGERYILVKKTNDDWWQVKPDENSKAFYVPAQYVKEVTRKAL

- Kd [2]: 200 nM
B2: ARHGAP12 SH3 domain, GST cleaved (domain or fragment)
chain: PGQVYIEVEYDYEYEAKDRKIVIKQGERYILVKKTNDDWWQVKPDENSKAFYVPAQYVKEVTR
